Data on nine molecules can be found in publication PMC1373692.

For data set [1], the target named is T1, RecJ (native wild-type) (Escherichia coli, UniProt P21893 1-577).
T1 sequence: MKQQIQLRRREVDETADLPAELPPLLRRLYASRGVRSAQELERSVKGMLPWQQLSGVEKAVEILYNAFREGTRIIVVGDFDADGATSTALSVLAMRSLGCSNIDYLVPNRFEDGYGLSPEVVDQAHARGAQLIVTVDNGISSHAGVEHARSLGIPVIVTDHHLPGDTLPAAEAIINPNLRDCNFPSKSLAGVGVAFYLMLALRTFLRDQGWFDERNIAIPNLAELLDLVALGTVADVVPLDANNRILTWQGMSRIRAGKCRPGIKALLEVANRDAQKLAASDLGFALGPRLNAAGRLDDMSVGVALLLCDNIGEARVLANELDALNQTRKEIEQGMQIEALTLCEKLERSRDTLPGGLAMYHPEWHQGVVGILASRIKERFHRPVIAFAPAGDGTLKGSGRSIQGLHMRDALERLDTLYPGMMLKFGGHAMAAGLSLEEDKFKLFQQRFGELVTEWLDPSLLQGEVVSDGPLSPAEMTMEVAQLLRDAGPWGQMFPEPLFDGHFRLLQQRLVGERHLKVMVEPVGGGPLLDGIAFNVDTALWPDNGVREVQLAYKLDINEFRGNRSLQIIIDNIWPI
Description: EMSA. (A gel shift assay detects complexes by their altered migration in electrophoresis.)

For a further data set, the target named is SSB (UniProt P0AGE0 2-178). The data set can be described thus: EMSA.
SSB, sequence (P0AGE0 2-178): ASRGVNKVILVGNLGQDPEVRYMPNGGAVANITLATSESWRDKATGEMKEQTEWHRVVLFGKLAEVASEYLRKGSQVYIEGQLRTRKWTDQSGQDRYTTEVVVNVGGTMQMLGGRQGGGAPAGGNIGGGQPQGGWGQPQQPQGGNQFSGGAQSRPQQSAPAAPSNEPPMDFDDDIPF
The target of another data set is T2, RecJf (MBP-RecJ fusion) (UniProt P21893 1-577).
T2 sequence: T1 sequence
The data set can be described thus: EMSA.

Data set [2] concerns the target RecJ (native wild-type);SSB (Escherichia coli;Escherichia coli?, UniProt P21893;P0AGE0 1-577;2-178, |). The data set can be described thus: EMSA, supershift.
Data set [3] concerns the target T1, RecJ (native wild-type). The data set can be described thus: EMSA. The source holds these as a separate data set.
Data set [4] addresses T1, RecJ (native wild-type). The data set can be described thus: EMSA. The source holds these as a separate data set.
Data set [5] concerns the target T1, RecJ (native wild-type). Description: EMSA. The source holds these as a separate data set.

In general, Kd refers to the constant that tells how readily two partners part at equilibrium.

Like-named read-outs stand apart in the source and are kept apart here.

RecJ (native wild-type);SSB, sequence (P0AGE0 2-178, one chain of several): as the sequence (P0AGE0 2-178) above

B1: A/C 10 nt 5' tail (dsDNA)
DNA 1: GCCCAGGTGGCAGGCCCTAGGGTGGAGGGGAGGCCGCCGGCATGGGGACGCGATGGGCGGAGGCG
DNA 2: CGCCTCCGCCCATCGCGTCCCCATGCCGGCGGCCTCCCCTCCACCCTAGGGCCTG
modifications: 5' phosphate on A from labeling
B1 showed a Kd with RecJ (native wild-type) [1] of 9.5 nM.

B2: oligonucleotide A (65mer) (ssDNA)
DNA: B1 DNA 1
modifications: 5' phosphate from labeling
As for B2, the binding result (in the data set with SSB; in the data set with RecJf (MBP-RecJ fusion); in data set [2]; with RecJ (native wild-type) [3]) was “binds” in each case.

B3: A/D 4 nt 5' tail (dsDNA)
DNA 1: B1 DNA 1
DNA 2: CGCCTCCGCCCATCGCGTCCCCATGCCGGCGGCCTCCCCTCCACCCTAGGGCCTGCCACCT
modifications: 5' phosphate on A from labeling
For B3, in the data set with RecJ (native wild-type) [4], the binding result is on record as “no binding”.

B4: A/B 20 nt 5' tail (dsDNA)
DNA 1: B1 DNA 1
DNA 2: CGCCTCCGCCCATCGCGTCCCCATGCCGGCGGCCTCCCCTCCACC
modifications: 5' phosphate on A from labeling
In turn, B4 had a Kd in the data set with RecJ (native wild-type) [1] of 33 nM.

B5: A 8 nt 5' tail (dsDNA)
DNA 1: B1 DNA 1
DNA 2: CGCCTCCGCCCATCGCGTCCCCATGCCGGCGGCCTCCCCTCCACCCTAGGGCCTGCC
modifications: 5' phosphate on A from labeling
Consider B5, for which, in the data set with RecJ (native wild-type) [5], the binding result was “binds”.

B6: A 7 nt 5' tail (dsDNA)
DNA 1: B1 DNA 1
DNA 2: CGCCTCCGCCCATCGCGTCCCCATGCCGGCGGCCTCCCCTCCACCCTAGGGCCTGCCA
modifications: 5' phosphate on A from labeling
B6: the binding result in the data set with RecJ (native wild-type) [5] is given as “binds”.

B7: A/E 65 bp duplex (dsDNA)
DNA 1: B1 DNA 1
DNA 2: CGCCTCCGCCCATCGCGTCCCCATGCCGGCGGCCTCCCCTCCACCCTAGGGCCTGCCACCTGGGC
modifications: 5' phosphate on A from labeling
In the case of B7, the binding result with RecJ (native wild-type) [4] is on record as “no binding”.

B8: A 9 nt 5' tail (dsDNA)
DNA 1: B1 DNA 1
DNA 2: CGCCTCCGCCCATCGCGTCCCCATGCCGGCGGCCTCCCCTCCACCCTAGGGCCTGC
modifications: 5' phosphate on A from labeling
As to B8, in the data set with RecJ (native wild-type) [5], the binding result is reported as “binds”.

B9: A 5 nt 5' tail (dsDNA)
DNA 1: B1 DNA 1
DNA 2: CGCCTCCGCCCATCGCGTCCCCATGCCGGCGGCCTCCCCTCCACCCTAGGGCCTGCCACC
modifications: 5' phosphate on A from labeling
For the molecule B9, the binding result with RecJ (native wild-type) [5] is “no binding”.
